Measured values as given in patent EP4477673A1, “IMMUNOCONJUGATE AND USE THEREOF” (priority 2022, dated 2023).
One block for each binder: values may come before it.

Key:
human PD-1 [1] = biological target: T1, human PD-1 (human, UniProt Q15116 25-288); assay: cell-based or functional assay
human PD-1 [2] = biological target: T1, human PD-1; assay: flow cytometry on Jurkat cells overexpressing human PD-1
[3] = biological target: T2, Human PD-1 protein (His Tag) (human, UniProt Q15116 25-167); assay: ELISA, plate coated with human PD-1 (his tag), anti-human IgG4 Fc-HRP
T2 construct: also called PD1-H5221; PD-1 antigen; not shown: His tag

IL-2Rβ/γ on M07e cells [4] = biological target: T3, IL-2Rβ/γ on M07e cells (human, UniProt P14784 27-551; P31785 23-369); assay: cell-based or functional assay
T3 sequence (looked up) 1: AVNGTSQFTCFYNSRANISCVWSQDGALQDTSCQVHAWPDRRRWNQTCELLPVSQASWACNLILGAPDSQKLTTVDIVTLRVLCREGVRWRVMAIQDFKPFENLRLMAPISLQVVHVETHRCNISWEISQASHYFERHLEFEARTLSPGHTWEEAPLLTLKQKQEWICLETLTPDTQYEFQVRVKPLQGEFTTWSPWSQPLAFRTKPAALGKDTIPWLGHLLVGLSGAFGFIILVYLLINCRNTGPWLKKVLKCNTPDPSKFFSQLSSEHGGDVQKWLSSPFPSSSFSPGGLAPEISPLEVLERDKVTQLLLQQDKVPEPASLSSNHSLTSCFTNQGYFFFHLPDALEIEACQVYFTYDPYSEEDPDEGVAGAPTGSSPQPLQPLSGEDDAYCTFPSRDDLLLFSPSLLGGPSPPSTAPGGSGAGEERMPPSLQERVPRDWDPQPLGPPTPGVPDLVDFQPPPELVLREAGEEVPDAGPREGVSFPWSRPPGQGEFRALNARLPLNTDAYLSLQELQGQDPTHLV
T3 sequence (looked up) 2: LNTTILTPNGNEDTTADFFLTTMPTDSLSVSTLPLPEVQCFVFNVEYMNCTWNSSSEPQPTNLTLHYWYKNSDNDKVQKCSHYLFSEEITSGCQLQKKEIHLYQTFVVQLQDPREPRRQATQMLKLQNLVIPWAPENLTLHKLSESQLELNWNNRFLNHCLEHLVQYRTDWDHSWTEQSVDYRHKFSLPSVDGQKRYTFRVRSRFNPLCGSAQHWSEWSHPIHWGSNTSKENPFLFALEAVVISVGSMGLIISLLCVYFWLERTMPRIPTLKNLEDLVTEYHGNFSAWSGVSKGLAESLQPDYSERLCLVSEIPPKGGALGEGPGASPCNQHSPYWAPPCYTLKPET

IL-2Rβ/γ on M07e cells [5] = biological target: T3, IL-2Rβ/γ on M07e cells; assay: cell-based or functional assay; remark: listed apart in the source
IL-2Rβ/γ on M07e cells [6] = biological target: T3, IL-2Rβ/γ on M07e cells; assay: cell-based or functional assay; remark: listed apart in the source

T1 sequence (Q15116 25-288 limits assumed): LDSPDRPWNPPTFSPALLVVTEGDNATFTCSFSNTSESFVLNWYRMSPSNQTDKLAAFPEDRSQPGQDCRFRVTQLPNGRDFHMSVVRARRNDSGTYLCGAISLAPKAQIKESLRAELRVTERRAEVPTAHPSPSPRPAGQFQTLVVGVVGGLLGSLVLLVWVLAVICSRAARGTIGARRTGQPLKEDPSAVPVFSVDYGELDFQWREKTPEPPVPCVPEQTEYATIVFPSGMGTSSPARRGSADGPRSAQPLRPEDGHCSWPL
T2 sequence (Q15116 25-167): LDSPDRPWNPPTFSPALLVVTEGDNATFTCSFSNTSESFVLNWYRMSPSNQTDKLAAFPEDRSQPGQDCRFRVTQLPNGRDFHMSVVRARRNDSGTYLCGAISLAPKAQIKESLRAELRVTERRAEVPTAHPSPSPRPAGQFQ

IC50, PD-1/PD-L1 NFAT reporter gene system (human PD-1 [1]): 1.2 nM
EC50 (human PD-1 [2]): 0.357 nM
EC50 [3]: 0.061 nM
B1: A17_hIgG4 (antibody, V domains shown)
VH: EVQVVESGGGLVQPGGSLRLSCVASGLTFSDYSMSWYRQAPGKERELVAIISGSGVIAHYVDSVKGRFTISRDNAKSTVYLQMVSLKPEDRGVYYCRAVSDWDDYWGQGTQVTVSS

M07e proliferation, EC50 (IL-2Rβ/γ on M07e cells [4]): 20.9 nM
M07e proliferation, Maximal fluorescence value (Max Lum) (IL-2Rβ/γ on M07e cells [4]): 4.45e+06 Lum
M07e-hPD1 proliferation, EC50 (IL-2Rβ/γ on M07e cells [4]): 13.3 nM
M07e-hPD1 proliferation, Maximal fluorescence value (Max Lum) (IL-2Rβ/γ on M07e cells [4]): 7.94e+06 Lum
M07e cell proliferation activity (%) at 0.46 nM (IL-2Rβ/γ on M07e cells [5]): 0.7%
M07e cell proliferation activity (%) at 1.4 nM (IL-2Rβ/γ on M07e cells [5]): 2.6%
M07e cell proliferation activity (%) at 4.1 nM (IL-2Rβ/γ on M07e cells [5]): 11.2%
M07e cell proliferation activity (%) at 12 nM (IL-2Rβ/γ on M07e cells [5]): 34.2%
M07e cell proliferation activity (%) at 37 nM (IL-2Rβ/γ on M07e cells [5]): 68.2%
M07e cell proliferation activity (%) at 111 nM (IL-2Rβ/γ on M07e cells [5]): 88.3%
M07e cell proliferation activity (%) at 333 nM (IL-2Rβ/γ on M07e cells [5]): 102%
M07e cell proliferation activity (%) at 1000 nM (IL-2Rβ/γ on M07e cells [5]): 89%
M07e-hPD-1 cell proliferation activity (%) at 0.0001 nM (IL-2Rβ/γ on M07e cells [5]): 1.9%
M07e-hPD-1 cell proliferation activity (%) at 0.001 nM (IL-2Rβ/γ on M07e cells [5]): 1.1%
M07e-hPD-1 cell proliferation activity (%) at 0.01 nM (IL-2Rβ/γ on M07e cells [5]): 0.5%
M07e-hPD-1 cell proliferation activity (%) at 0.1 nM (IL-2Rβ/γ on M07e cells [5]): 0.4%
M07e-hPD-1 cell proliferation activity (%) at 1 nM (IL-2Rβ/γ on M07e cells [5]): 3.3%
M07e-hPD-1 cell proliferation activity (%) at 10 nM (IL-2Rβ/γ on M07e cells [5]): 33.3%
M07e-hPD-1 cell proliferation activity (%) at 100 nM (IL-2Rβ/γ on M07e cells [5]): 104%
M07e-hPD-1 cell proliferation activity (%) at 1000 nM (IL-2Rβ/γ on M07e cells [5]): 100%
M07e-hPD-1 cell proliferation ratio (%) at 0.0001 nM (IL-2Rβ/γ on M07e cells [6]): -2.2%
M07e-hPD-1 cell proliferation ratio (%) at 0.001 nM (IL-2Rβ/γ on M07e cells [6]): -2.1%
M07e-hPD-1 cell proliferation ratio (%) at 0.01 nM (IL-2Rβ/γ on M07e cells [6]): -2.6%
M07e-hPD-1 cell proliferation ratio (%) at 0.1 nM (IL-2Rβ/γ on M07e cells [6]): -2.2%
M07e-hPD-1 cell proliferation ratio (%) at 1 nM (IL-2Rβ/γ on M07e cells [6]): -0.6%
M07e-hPD-1 cell proliferation ratio (%) at 10 nM (IL-2Rβ/γ on M07e cells [6]): 24.4%
M07e-hPD-1 cell proliferation ratio (%) at 100 nM (IL-2Rβ/γ on M07e cells [6]): 76.7%
M07e-hPD-1 cell proliferation ratio (%) at 1000 nM (IL-2Rβ/γ on M07e cells [6]): 89.1%
B2: PEGylated IL-2 mutant (PEG-IL-2v) (ligand)
chain: APASSSTKKTQLQLEHLLLDLQMILQGISNYKNPKLTRMLTAKFYMPKKATELKHLQCLEEELKPLEEVLQGAQSKNFHLRPRDLISNINVIVLELKGSETTFMCEYADETATIVEFLNRWITFAQSIISTLT
modifications: PEGylated (site not stated)
